Experimental data published in patent publication US20190004036.
Where two headings read alike, the source gives them in different places.

T1: 5FAMcollagenPPT protease substrate
T1 sequence: AGGPLGPPGPGGK

T2: 5FAMcollagenPPT protease substrate
T2 chain: AGGPLGPPGPGGK

B1: thermolysin (protein)
chain: ITGTSTVGVGRGVLGDQKNINTTYSTYYYLQDNTRGNGIFTYDAKYRTTLPGSLWADADNQFFASYDAPAVDAHYYAGVTYDYYKNVHNRLSYDGNNAAIRSSVHYSQGYNNAFWNGSQMVYGDGDGQTFIPLSGGIDVVAHELTHAVTDYTAGLIYQNESGAINEAISDIFGTLVEFYANKNPDWEIGEDVYTPGISGDSLRSMSDPAKYGDPDHYSKRYTGTQDNGGVHINSGIINKAAYLISQGGTHYGVSVVGIGRDKLGKIFYRALTQYLTPTSNFSQLRAAAVQSATDLYGSTSQEVASVKQAFDAVGVK
B2: collagenase class II (protein)
chain: VQNESKRYTVSYLKTLNYYDLVDLLVKTEIENLPDLFQYSSDAKEFYGNKTRMSFIMDEIGRRAPQYTEIDHKGIPTLVEVVRAGFYLGFHNKELNEINKRSFKERVIPSILAIQKNPNFKLGTEVQDKIVSATGLLAGNETAPPEVVNNFTPILQDCIKNIDRYALDDLKSKALFNVLAAPTYDITEYLRATKEKPENTPWYGKIDGFINELKKLALYGKINDNNSWIIDNGIYHIAPLGKLHSNNKIGIETLTEVMKVYPYLSMQHLQSADQIKRHYDSKDAEGNKIPLDKFKKEGKEKYCPKTYTFDDGKVIIKAGARVEEEKVKRLYWASKEVNSQFFRVYGIDKPLEEGNPDDILTMVIYNSPEEYKLNSVLYGYDTNNGGMYIEPEGTFFTYEREAQESTYTLEELFRHEYTHYLQGRYAVPGQWGRTKLYDNDRLTWYEEGGAELFAGSTRTSGILPRKSIVSNIHNTTRNNRYKLSDTVHSKYGASFEFYNYACMFMDYMYNKDMGILNKLNDLAKNNDVDGYDNYIRDLSSNYALNDKYQDHMQERIDNYENLTVPFVADDYLVRHAYKNPNEIYSEISEVAKLKDAKSEVKKSQYFSTFTLRGSYTGGASKGKLEDQKAMNKFIDDSLKKLDTYSWSGYKTLTAYFTNYKVDSSNRVTYDVVFHGYLPNEGDSKNSLPYGKINGTYKGTEKEKIKFSSEGSFDPDGKIVSYEWDFGDGNKSNEENPEHSYDKVGTYTVKLKVTDDKGESSVSTTTAEIKDLSENKLPVIYMHVPKSGALNQKVVFYGKGTYDPDGSIAGYQWDFGDGSDFSSEQNPSHVYTKKGEYTVTLRVMDSSGQMSEKTMKIKITDPVYPIGTEKEPNNSKETASGPIVPGIPVSGTIENTSDQDYFYFDVITPGEVKIDINKLGYGGATWVVYDENNNAVSYATDDGQNLSGKFKADKPGRYYIHLYMFNGSYMPYRINIEGSVGR

Columns and labels:
[1] = system: T1, 5FAMcollagenPPT protease substrate
[2] = target: T2, 5FAMcollagenPPT protease substrate

Molecule	Km, with 4.14 mM calcium (FRET cleavage assay) [1]	Km, without calcium (FRET cleavage assay) [1]	Vmax, with 4.14 mM calcium (FRET cleavage assay) [1]	Vmax, without calcium (FRET cleavage assay) [1]	cleavage of substrate (FRET assay, Example 3, 0.3125-10 µg/mL enzyme, 50 µM substrate) [1]	Km (FRET cleavage assay, Example 3) [2]	Km, without calcium (FRET cleavage assay) [2]	Vmax (FRET cleavage assay, Example 3) [2]	Vmax, without calcium (FRET cleavage assay) [2]	further results
Neutral Protease	45.1 µM	74.1 µM	29.3 RFU/min/µg	20 RFU/min/µg	–	–	–	–	–	–
chymotrypsin	–	–	–	–	the mammalian proteases trypsin, chymotrypsin, and elastase do not cleave the protease substrate	–	–	–	–	–
collagenase class I	32.9 µM	38.1 µM	1010 RFU/min/µg	1700 RFU/min/µg	–	–	–	–	–	Km (FRET cleavage assay, Example 3) [1]: 28.2 µM; Vmax (FRET cleavage assay, Example 3) [1]: 909 RFU/min/µg
trypsin	–	–	–	–	the mammalian proteases trypsin, chymotrypsin, and elastase do not cleave the protease substrate	–	–	–	–	–
B1	–	–	–	–	–	34.6 µM	30.4 µM	24.6 RFU/min/µg	23.7 RFU/min/µg	Km, with 4.14 mM calcium (FRET cleavage assay) [2]: 24.8 µM; Vmax, with 4.14 mM calcium (FRET cleavage assay) [2]: 25.5 RFU/min/µg
B2	–	–	–	–	–	24.5 µM	24.1 µM	5000 RFU/min/µg	3240 RFU/min/µg	–
